First the molecules themselves.
B1: Arl15-AL-Myc [human] / GST-Smad4 [not stated] (parent)
chain 1: MSDLRITEAFLYMDYLCFRALCCKGPPPARPEYDLVCIGLTGSGKTSLLSKLCSESPDNVVSTTGFSIKAVPFQNAILNVKELGGLDNIRKYWSRYYQGSQGVIFVLDSASSEDDLEAARNELHSALQHPQLCTLPFLILANHQDKPAARSVQEIKKYFELEPLARGKRWILQPCSLDDMDALKDSFSQLINLLEEKDHEAVRM
chain 2: MDNMSITNTPTSNDACLSIVHSLMCHRQGGESETFAKRAIESLVKKLKEKKDELDSLITAITTNGAHPSKCVTIQRTLDGRLQVAGRKGFPHVIYARLWRWPDLHKNELKHVKYCQYAFDLKCDSVCVNPYHYERVVSPGIDLSGLTLQSNAPSSMMVKDEYVHDFEGQPSLSTEGHSIQTIQHPPSNRASTETYSTPALLAPSESNATSTANFPNIPVASTSQPASILGGSHSEGLLQIASGPQPGQQQNGFTGQPATYHHNSTTTWTGSRTAPYTPNLPHHQNGHLQHHPPMPPHPGHYWPVHNELAFQPPISNHPAPEYWCSIAYFEMDVQVGETFKVPSSCPIVTVDGYVDPSGGDRFCLGQLSNVHRTEAIERARLHIGKGVQLECKGEGDVWVRCLSDHAVFVQSYYLDREAGRAPGDAVHKIYPSAYIKVFDLRQCHRQMQQQAATAQAAAAAQAAAVAGNIPGPGSVGGIAPAISLSAAAGIGVDDLRRLCILRMSFVKGWGPDYPRQSIKETPCWIEIHLHRALQLLDEVLHTMPIADPQPLD

The record followed here is article PMC9352346.

The variants in this experiment derive from B1. In words: GST pull-down, immunoblot band quantification. The settings on record: with GST-Smad4; HeLa cell lysates; bead-immobilized GST-Smad4; parent: 100.
For chain 1 E82K, the percent of parent was found to be 95.

chain 1 R90L: the percent of parent is 22.

Regarding chain 1 Y96F, the percent of parent came to 47.

Turning to chain 1 R95C, the percent of parent was 38.
